# Tested on: MS2 coat protein
# Test: apparent KD of MS2 coat protein; designed switch direction (-1 OFF switch, 1 ON switch): -1; higher = weaker reporter binding
# How it was run: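 Transcription of designed RNA switches on Illumina chips was done by stalled E. coli RNA polymerase. SNAP-549-labelled MS2 coat protein was then titrated in doubling steps from 0.7 or 1.5 nM to 3 µM, with steps of 0.8–1.5 h at the lowest and 10–20 min at the highest concentration. The per-design median over clusters of curve-fitted normalised fluorescence is reported as apparent KD.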
# [1] = Eterna round: R95, input ligand: FMN 200 uM
# [2] = Eterna round: R95, input ligand: microRNA oligo, concentration not stated
# [3] = Eterna round: R95, input ligand: none
# [4] = input ligand: microRNA oligo, concentration not stated
Sequence,apparent KD of MS2 coat protein [1],apparent KD of MS2 coat protein [2],apparent KD of MS2 coat protein [3],apparent KD of MS2 coat protein (input ligand: FMN 200 uM),apparent KD of MS2 coat protein (input ligand: none),apparent KD of MS2 coat protein [4]
AAGAAACAUGAGGAUCACCCAUGUGAGGAUAUGUAAAAUAAAAGAAAAGAAAUAAUAAACAGAAGGCACAAAGG [Mat - Mod of Hog D15] (puzzle: Exclusion 1),52.1 nM,30.9 nM,41.4 nM,,,
"GAUUAACAUGAGGAUCACCCAUGUGAGGAUAUGGACUUGCCCACUUACCCAUUAGAGUCUAGAAGGCGCAUCUC [1986#2\9] (Eterna round: R97, puzzle: Exclusion 1)",,,,25.7 nM,25.3 nM,
GAAAAGGUAGGAUAUACGAUAAUAAAGGGUAGAUAAUAAACACAUGAGGAUCACCCAUGUAGAAGGACCAAAAG [salish99_ex2_r3_103] (puzzle: Exclusion 2),127 nM,35 nM,35.2 nM,,,
"UAUUAGUAAGGAUAUCCCACGUAGGACUUCGGUCCUACGUGGGAGAAGGUACAUGAGGAUCACCCAUGUCUAUU [Mod of Fisker 13 - Jieux - Exclusion 4] (Eterna round: R97, puzzle: Exclusion 4)",,,,16.6 nM,14.9 nM,
AAGAAGCUAGGAUAUCACACUGACAACAUGAGGAUCACCCAUGUAGGUGAUCGGUUAGCUUGAGAAGGAGCGGAGG [Laedanes] (puzzle: Exclusion 5),83.5 nM,46.9 nM,78.3 nM,,,
"GGAGGACGAGCAGGAUAUUUUCACAUGAGGAUCACCCAUGUGUAAUCAGGGUAAUCCUCCGCCGAAAAGAAGGGUUCGGAAUAA [Mat - Exclusion NG 2 - Mod of JL - D82] (Eterna round: R96, puzzle: Exclusion NG 2)",,,,60 nM,70.5 nM,52.4 nM
"GAUCCUUCUGUUAGGAUAUGCUUCGGGCUUCCGCUGCAGAAGGAACAUGAGGAUCACCCAUGUCAAAUAAAAUC [JL-BMX4-4.38 ViennaUCT mod] (Eterna round: R97, puzzle: Brourd's mod of Exclusion 4)",,,,48.5 nM,17.8 nM,
"AAUACAAGUAAGAUCCUAAACAUGAGGAUCACCCAUGUGCUCGUCUUAUAAAGUACUAUCACGAAAGUGAUAGUACA [Sensor 3, v1 - 66] (puzzle: Sensor v3, turn-off variant 1)",48.7 nM,314 nM,37.5 nM,,,
"ACAAGCUUUUGCUCGUCUUACAUGAGGAUCACCCAUGUCGGAUGAUCGCUUGCGUCCGGCGUCUGAGCCGUGACGGU [Sensor, turn off variant MOD of sellena. cleaned up dot.] (Eterna round: R97, puzzle: Sensor, turn-off variant 1)",,,,15.3 nM,15 nM,
GUGGCACAUGAGGAUCACCCAUGUCAGGAUAUCGUGUGUUUUUUUUCGGCCGCGCGCGCGAGAAGGGACGUCUU (puzzle: Exclusion 1),,97.8 nM,,,,
ACCGAACAUGAGGAUCACCCAUGUGAGGAUAUCCCGAGAUUAAAUGCCGCAAGAAGGCGGAGAAGGCGCAUGGG [Ditiesre] (puzzle: Exclusion 1),45.2 nM,23.7 nM,31.3 nM,,,
GAGGAGCAAGGAUAUACGAGGAUAUGGUAGUUUGUAGAGUGACAUGAGGAUCACCCAUGUAGAAGGUGCGAGGG [JR_Exclu2_Sub099] (puzzle: Exclusion 2),,41.7 nM,,,,
"CUCGGGCUGGUGAGGAUAUCGGGCUCUAAAGGGCUCGAGAAGGCACAUGAGGAUCACCCAUGUAAUGGCUCGGG [-29.3, -27.9 kcal, A 23%, 4-4bis] (Eterna round: R97, puzzle: Brourd's mod of Exclusion 4)",,,,17.3 nM,24.5 nM,
"AGUGCUGGCGCGUCGGUGUUGGUGCAAUAAGCUUGUGAAACAUGAGGAUCACCCAUGUCCUCAUAAGCUCGUCUUAU [salish99_TOv2_r2_085] (Eterna round: R96, puzzle: Sensor v3, turn-off variant 2)",,,,14.9 nM,17.9 nM,375 nM
CAGAAACAUGAGGAUCACCCAUGUGAGGAUAUGAAAAAGAAAAGAAAAGAAAGAAGAAUCAGAAGGCACAAAGG [salish99-ex1_r3_081] (puzzle: Exclusion 1),39.9 nM,30.8 nM,38.5 nM,,,
"CUGCGUAGAGGAUAUACAUGAGGAUCACCCAUGUGCUAAAUGACUGCAUGCAAAUCGUGUAGAAGGUUGAAGGG [Eternabot (L2) Solution 85] (Eterna round: R97, puzzle: Exclusion 3)",,,,34.6 nM,40.4 nM,
"UUUAUAAUAAGAUCAAUUAAUUAACAUGAGGAUCACCCAUGUGAGGAUAUCAGCUCGAUUAGAGCUGAGAAGGCACAAUAUAAG [ExNG3/17-B1] (Eterna round: R96, puzzle: Exclusion NG 3)",,,,79.3 nM,43.3 nM,36.3 nM

Sequence,apparent KD of MS2 coat protein [1],apparent KD of MS2 coat protein [2],apparent KD of MS2 coat protein [3],apparent KD of MS2 coat protein (input ligand: FMN 200 uM),apparent KD of MS2 coat protein (input ligand: none),apparent KD of MS2 coat protein [4]
CGUUCUCGAGUCAGGAUAUCGACUAAUUCCCAAGUCGAGAAGGGACAUGAGGAUCACCCAUGUAAAGAAAAGAA [Ainteedle] (puzzle: Brourd's mod of Exclusion 4),118 nM,30.1 nM,30.3 nM,,,
"GGGUGCAGGCUGCGGUCCUACAUGAGGAUCACCCAUGUGGUCCGGUGGCGUGGGUCGCCGGACUUGGCUCGUCUUGU [salish99_S_TOV1_R5_014] (Eterna round: R97, puzzle: Sensor, turn-off variant 1)",,,,91.2 nM,99.3 nM,
"AAGUACUACAAGCUUAGGGACAUGAGGAUCACCCAUGUUCGUCUUAUUGAUCUAGGUACGCUGACGUACCUAGAUCA [Mat - Sensor v3 - turn-off var 1 - JL Mod - D10] (puzzle: Sensor v3, turn-off variant 1)",16.2 nM,44.5 nM,15.5 nM,,,
"AGGUGUAGAGGAUAUCUCUUCUCUCACAUGAGGAUCACCCAUGUCCUGGUCACCAAGGAGAGAGAAGGCUACACCA [Omei Ex5 D9] (Eterna round: R97, puzzle: Exclusion 5)",,,,56.4 nM,76.4 nM,
"AAAUUUGGAGGAUAUCCAUUGGGAAACAUGAGGAUCACCCAUGUAAUAAAAGGGAAAUCCGGAGAAGGCCAAAUUU [-20.39, -19.1 kcal, 39% A] (Eterna round: R97, puzzle: Exclusion 5)",,,,45.7 nM,19.1 nM,
"GGGCUCGGAGGAUAUACAAUGGGCUCGGGAAAUCGGGCUCUACAUGAGGAUCACCCAUGUAGAAGGUCGGGCUC [-38.9, -35.6 kcal A 24%, 4,4] (Eterna round: R97, puzzle: Exclusion 2)",,,,16.4 nM,14.1 nM,
"GAUUAUGCGAGCUUUAGGGACAUGAGGAUCACCCAUGUUCGUCUUAUUGGUCUAAGUGCACUAACAUACCUAAAUCU [JMF 30] (puzzle: Sensor v3, turn-off variant 1)",21.2 nM,38.5 nM,20 nM,,,
UAGAUGGGAGGAUAUGCAUAGAUACAGAUUCAUGUAGUGCUACAUGAGGAUCACCCAUGUAGAAGGCCCGUCUU [JL-ex2-2.20 Mayanne mod] (puzzle: Exclusion 2),,19.9 nM,,,,
"AAAUAGGGAGGAUAUCCAAUAUAUGACAUGAGGAUCACCCAUGUUUCCACUCGUACCUCCGGAGAAGGCCCAUAAA [Ex5 #3] (Eterna round: R97, puzzle: Exclusion 5)",,,,20.9 nM,21.8 nM,
"AUUUUAUAACAAGGAUAUACUAAACAUGAGGAUCACCCAUGUAAUAUUAUGAGUGAGAGAGAGAAGUAGAAGGUGUAUUAUUUU [JMF solution 1] (Eterna round: R96, puzzle: Exclusion NG 2)",,,,,,97.4 nM
GUGUACGGAGGAUAUAUGUGGUGAGCAUACGCUCAAGCUUCACAUGAGGAUCACCCAUGUAGAAGGCUGUGCAC [JL-ex2-2.13 Brourd mod] (puzzle: Exclusion 2),,118 nM,,,,
"CGCUGGGCAGGAUAUGUUCUUGAGCACUUGAGGAUCACCCAAGUCAUCAAGAACUCAGGCACAGAAGGGUUUAUGG [salish99_ex5_r4_017] (Eterna round: R97, puzzle: Exclusion 5)",,,,10.5 nM,13.4 nM,
GACUUCCGAGGAUAUACAUGAGGAUCACCCAUGUGCUUCAGCAUUUUUUGAUGCAUGGGUAGAAGGCGGUAGUU [LRO-Excl3-16] (puzzle: Exclusion 3),,226 nM,,,,
"GGAAGGCGAGGAUAUACAAUAAAGAAAGCGAAAGACAUGAAACAUGAGGAUCACCCAUGUAGAAGGCGCGGAGA [AK-MS2ROC-r4-exclusion2-9] (Eterna round: R97, puzzle: Exclusion 2)",,,,16.5 nM,13.8 nM,
"GCUGGUCGAGGAUAUACAUUCGUGCUUCGGCACGUAAGGUCACAUGAGGAUCACCCAUGUAGAAGGCGACCAGC [E2/7-A1] (Eterna round: R97, puzzle: Exclusion 2)",,,,258 nM,42.2 nM,
"AUAUGCAAGUAAAGAUCCUACAUGAGGAUCACCCAUGUGCUCGUCUUAUAAAGUACUAUCACGAAAGUGAUAGUACA [Mat - Sensor v3 - turn-off var 1 - Eli Mod - D84] (puzzle: Sensor v3, turn-off variant 1)",215 nM,15.6 nM,170 nM,,,
"UAUUAGCAAGCGAGAUCCCACAUGAGGAUCACCCAUGUAAAGCAUCCAGAAUUACUGGGUGCAAAAGCUCGUCUUUA [Winner reversed engineered 5] (Eterna round: R97, puzzle: Sensor, turn-off variant 1)",,,,28.7 nM,40 nM,

# Source: the supplement of paper PMC9170038
